Measurements: patent US20230118307A1, “THERAPEUTIC USE OF LONG-ACTING CONJUGATE OF TRIPLE AGONIST HAVING ACTIVITIES TO ALL OF GLUCAGON/GLP-1/GIP RECEPTORS FOR LUNG DISEASE” (HANMI PHARM. CO., LTD., priority 2020, published 2023)
Positions of bridges follow the written chain, without caps; N, C: chain ends. Non-standard residues stand in square brackets, D forms with d. No end group written: not given here. *: point of attachment. Acetyl(2-(4-imidazolyl)) = O=C(Cc1c[nH]cn1)*; Aib = CC(C)(N)C(=O)O

T1: human GIP receptor (human, UniProt P48546 22-466)
T1 sequence (looked up): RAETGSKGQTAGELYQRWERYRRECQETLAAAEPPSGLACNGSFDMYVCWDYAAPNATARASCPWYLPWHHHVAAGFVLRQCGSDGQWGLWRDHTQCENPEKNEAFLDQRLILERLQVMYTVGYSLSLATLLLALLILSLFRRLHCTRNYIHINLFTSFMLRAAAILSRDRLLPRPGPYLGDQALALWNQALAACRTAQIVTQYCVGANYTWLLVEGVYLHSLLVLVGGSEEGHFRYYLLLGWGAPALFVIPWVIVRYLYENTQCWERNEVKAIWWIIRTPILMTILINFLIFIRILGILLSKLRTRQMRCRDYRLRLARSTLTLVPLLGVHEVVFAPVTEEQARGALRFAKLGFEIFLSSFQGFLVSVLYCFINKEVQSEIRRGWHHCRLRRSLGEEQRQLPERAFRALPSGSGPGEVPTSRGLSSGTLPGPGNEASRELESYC


Legend:
Assay in all cases: cell-based or functional assay
[1] = target: human GLP-1 receptor (human, UniProt P43220 24-463)
[2] = target: human GCG receptor (human, UniProt P47871 26-477)
Sequence of human GCG receptor (P47871 26-477): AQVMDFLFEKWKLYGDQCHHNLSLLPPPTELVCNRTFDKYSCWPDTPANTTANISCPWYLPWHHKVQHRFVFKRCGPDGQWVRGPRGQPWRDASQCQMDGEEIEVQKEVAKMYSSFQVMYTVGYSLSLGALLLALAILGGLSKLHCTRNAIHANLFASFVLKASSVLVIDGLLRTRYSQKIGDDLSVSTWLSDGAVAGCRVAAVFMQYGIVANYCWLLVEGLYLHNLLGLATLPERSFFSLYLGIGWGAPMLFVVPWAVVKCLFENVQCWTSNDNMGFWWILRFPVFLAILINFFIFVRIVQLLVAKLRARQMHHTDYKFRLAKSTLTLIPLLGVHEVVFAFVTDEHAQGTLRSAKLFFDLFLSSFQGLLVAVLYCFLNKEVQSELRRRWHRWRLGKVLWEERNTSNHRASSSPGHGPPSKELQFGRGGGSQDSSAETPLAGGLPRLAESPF

[3] = target: T1, human GIP receptor

Binder	In vitro Activity Compared to Native Peptide (%) vs. GLP-1 [1] [%]	In vitro Activity Compared to Native Peptide (%) vs. Glucagon [2] [%]	In vitro Activity Compared to Native Peptide (%) vs. GIP [3] [%]
HGQGTFTSDCSKYLDEQHAQEFVAWLLAGGPSSGAPPPS [triple agonist of SEQ ID NO: 46]	1.4	< 0.1	< 0.1
HGQGTFTSDCSKYLDGQRAQEFVAWLLAGGPSSGAPPPS [triple agonist of SEQ ID NO: 47]	2.4	< 0.1	< 0.1
HGQGTFTSDCSKYLDGQRAQDFVNWLLAGGPSSGAPPPS [triple agonist of SEQ ID NO: 48]	1.5	< 0.1	< 0.1
{Acetyl(2-(4-imidazolyl))}-[Aib]QGTFTSDYSICMDEIHQKDFVNWLLNTK (bridge 15-19) [triple agonist of SEQ ID NO: 49]	29.8	< 0.1	3.3
H[Aib]QGTFTSDYSKYLDEKRAKEFVQWLLDHHPSSGQPPPSC (bridge 16-20) [triple agonist of SEQ ID NO: 50]	67.4	50.5	2.7
H[Aib]QGTFTSDYSKYLDEKRQKEFVQWLLNTC (bridge 16-20) [triple agonist of SEQ ID NO: 51]	14.4	2	0.1
H[Aib]QGTFTSDYSKYLDEKRQKEFVQWLLDTC (bridge 16-20) [triple agonist of SEQ ID NO: 52]	44.1	7.5	0.3
H[Aib]EGTFTSDYSIAMDEIHQKDFVNWLLAQC (bridge 16-20) [triple agonist of SEQ ID NO: 53]	161	8.4	1.3
H[Aib]EGTFTSDYSIAMDEIHQKDFVDWLLAEC (bridge 16-20) [triple agonist of SEQ ID NO: 54]	30.6	1.4	0.1
H[Aib]QGTFTSDVSSYLDGQAAKEFVAWLLKGC [triple agonist of SEQ ID NO: 6]	17	< 0.1	< 0.1
H[Aib]QGTFTSDYSIAMDEIHQKDFVNWLLAQC (bridge 16-20) [triple agonist of SEQ ID NO: 55]	27.1	0.7	2.4
H[Aib]QGTFTSDYSKYLDEKRQKEFVNWLLAQC (bridge 16-20) [triple agonist of SEQ ID NO: 56]	57.9	4.9	0.8
H[Aib]QGTFTSDYSIAMDEIHQKDFVNWLLNTC (bridge 16-20) [triple agonist of SEQ ID NO: 57]	11.7	< 0.1	0.3
H[Aib]QGTFTSDYSKYLDEKRQKEFVQWLLNTKC (bridge 16-20) [triple agonist of SEQ ID NO: 58]	39.1	2.6	0.2
{Acetyl(2-(4-imidazolyl))}-[Aib]QGTFTSDYSICMDEKHQKDFVNWLLNTK (bridge 15-19) [triple agonist of SEQ ID NO: 59]	40.3	< 0.1	4
{Acetyl(2-(4-imidazolyl))}-[Aib]QGTFTSDYSIAMDEKHCKDFVNWLLNTK (bridge 15-19) [triple agonist of SEQ ID NO: 60]	106	< 0.1	8.2
